According to paper PMC3158298:

Target: CC-Aβ_(1-40)E22Δ
Experiment: split tetra-Cys FlAsH fluorescence

FlAsH fluorescence intensity relative to CC-Aβ (1-40): 1.5 fold
Substance: CC-Aβ_(1-40)E22Δ (peptide)
